Experimental findings from publication PMC9485235, “Structural insights into cyanobacterial RuBisCO assembly coordinated by two chaperones Raf1 and RbcX” (Cell Discovery, 2022) are described below.

Usually stoichiometry N stands for a count of units in the complex or per binding partner.

Series [1] deals with the molecule itself. Briefly: cryo-EM structure; RbcL–Raf1–RbcX ternary complex co-expressed in E. coli with GroEL-GroES, purified by Ni-NTA and gel filtration in 50 mM Tris-HCl pH 8.0, 20 mM NaCl, 5 mM MgCl2; ~2 mg/mL; D4 symmetry; 3.3 Å.
In series [2] the target is T1, Anabaena sp. PCC 7120 RbcL-Raf1 complex (RbcL8Raf1_(8)) (Anabaena sp. PCC 7120, UniProt P00879 1-476; Q8YLP6 1-361).
T1 construct: RbcL, Anabaena sp; as m1; plasmid pET19-His-RbcL–Raf1; Raf1, Anabaena sp; as m2; The preparation holds L8F8 and a fraction of L2F2 on native-PAGE; also called L8F8; L2F2 (smaller form in the same preparation); copies: 8 + 8
Nature of the series: native gel or EMSA; RuBisCO assembly assays: 0.5 µM L8F8 or L8F8X16 mixed with Flag-RbcS (0-10-fold to RbcL), with or without pre-incubation with 8 µM RbcX or RbcX^E32A&R69A or RbcX2 at 0-1 fold to RbcL; 25 °C, 20 mM Tris-HCl pH 8.0, 300 mM NaCl, 5 mM MgCl2, 5% glycerol; ~0.5 h; 6% native-PAGE, bands analysed by SDS-PAGE. The note with it: both partners purified. On the technique in general: A gel shift assay detects complexes by their altered migration in electrophoresis.

T1 sequence (Q8YLP6 whole entry, one chain of several): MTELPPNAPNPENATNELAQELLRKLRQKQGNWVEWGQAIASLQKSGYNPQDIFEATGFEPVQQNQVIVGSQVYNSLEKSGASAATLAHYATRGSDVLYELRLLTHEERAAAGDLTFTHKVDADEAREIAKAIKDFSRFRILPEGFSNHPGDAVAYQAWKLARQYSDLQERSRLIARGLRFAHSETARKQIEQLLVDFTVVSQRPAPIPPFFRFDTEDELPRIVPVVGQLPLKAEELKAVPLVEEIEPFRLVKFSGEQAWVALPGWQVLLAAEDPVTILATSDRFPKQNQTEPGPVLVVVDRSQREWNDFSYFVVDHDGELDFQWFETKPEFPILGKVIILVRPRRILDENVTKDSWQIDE

B1: RbcX from Anabaena sp. PCC 7120, co-expressed in the ternary complex (natural protein)
chain: MNLKQIAKDTAKTLQSYLTYQALMTVLAQLGETNPPLALWLHTFSVGKVQDGEAYVKELFREQPDLALRIMTVREHIAEEVAEFLPEMVRSGIQQANMEQRRQHLERMTHLSLSNPSPESEQQTISDTDWDH
notes: RbcX, RuBisCO chaperone, Anabaena sp; coding region amplified from genomic DNA; plasmid pCDFduet-GroEL-GroES-RbcX-Raf1; No tag is named for this RbcX in the plasmid name; also called RbcX2 (dimer); source: E. coli BL21 (DE3), co-expressed with His-RbcL, Raf1 and GroEL-GroES, co-purified (Ni-NTA, gel filtration)
Regarding B1, in series [1], the “stoichiometry N” value came to 2.

B2: Recombinant Anabaena sp. PCC 7120 Flag-RbcS (RuBisCO small subunit) (natural protein, UniProt P06514 1-109, looked up)
chain: MQTLPKERRYETLSYLPPLTDVQIEKQVQYILSQGYIPAVEFNEVSEPTELYWTLWKLPLFGAKTSREVLAEVQSCRSQYPGHYIRVVGFDNIKQCQILSFIVHKPSRY
notes: RbcS, RuBisCO small subunit, Anabaena sp; coding region amplified from genomic DNA; plasmid pET19-Flag-RbcS; A His-RbcS was also made (pET19-His-RbcS); the assembly-assay methods name Flag-RbcS; source: E. coli BL21 (DE3), purified (anti-FLAG M2 gel, Superdex 75); also in lysate (holoenzyme co-purification)
In the case of B2, in series [2], the binding result was “binds”.

B3: RuBisCO large subunit RbcL from Anabaena sp. PCC 7120 (His-RbcL) (natural protein, UniProt P00879 1-476, looked up)
chain: MSYAQTKTQTKSGYKAGVQDYRLTYYTPDYTPKDTDILAAFRVTPQPGVPFEEAAAAVAAESSTGTWTTVWTDLLTDLDRYKGRCYDIEPVPGEDNQFIAYIAYPLDLFEEGSITNVLTSIVGNVFGFKALRALRLEDIRFPVAYIKTFQGPPHGIQVERDKLNKYGRPLLGCTIKPKLGLSAKNYGRAVYECLRGGLDFTKDDENINSAPFQRWRDRFLFVADAITKAQAETGEIKGHYLNVTAPTCEEMLKRAEYAKELKQPIIMHDYLTAGFTANTTLARWCRDNGVLLHIHRAMHAVIDRQKNHGIHFRVLAKALRLSGGDHIHTGTVVGKLEGERGITMGFVDLLRENYVEQDKSRGIYFTQDWASLPGVMAVASGGIHVWHMPALVEIFGDDSVLQFGGGTLGHPWGNAPGATANRVALEACVQARNEGRNLAREGNDVIREAAKWSPELAVACELWKEIKFEFEAMDTV
notes: RbcL, ribulose-1,5-bisphosphate carboxylase/oxygenase large subunit, Anabaena sp; coding region amplified from genomic DNA; plasmid pET19-His-RbcL; also called RbcL8 core; source: E. coli BL21 (DE3), co-expressed with GroEL-GroES and chaperones, purified (Ni-NTA, gel filtration); also in lysate (holoenzyme co-purification)
Consider B3, for which the “stoichiometry N” value in series [1] was found to be 8.
